The values below come from US20170073406A1.

pKd: −log10 of the molar value.

Assay [1] concerns the target biotinylated His-tagged TGF-β1 LAP C4S (Homo sapiens (Human)) (UniProt P01137). Put plainly: ELISA, neutravidin plate with biotinylated His-tagged TGF-β1 LAP C4S; antibody dilution 1:1,000; fluorescent secondary detection.
For assay [2] the target is unchanged. Put plainly: ELISA, neutravidin plate with biotinylated His-tagged TGF-β1 LAP C4S; antibody dilution 1:5,000; fluorescent secondary detection. A general note: An ELISA detects its analyte on a solid surface through an enzyme-linked reagent.
Assay [3] deals with human GARP-TGF-β1 LAP (membrane-bound GARP with TGF-β1 LAP, on 300.19 cells) (human) (UniProt Q14392). As to the kind of experiment: flow cytometry on 300.19 cells stably expressing the complex; MFI minus control 300.19 cells; one-site binding fit. Background: In flow cytometry, cells or beads pass a laser one at a time.
human GARP-TGF-β1 LAP (membrane-bound GARP with TGF-β1 LAP, on 300.19 cells) (human), sequence (Q14392 20-662 limits assumed, chain 1 of 2): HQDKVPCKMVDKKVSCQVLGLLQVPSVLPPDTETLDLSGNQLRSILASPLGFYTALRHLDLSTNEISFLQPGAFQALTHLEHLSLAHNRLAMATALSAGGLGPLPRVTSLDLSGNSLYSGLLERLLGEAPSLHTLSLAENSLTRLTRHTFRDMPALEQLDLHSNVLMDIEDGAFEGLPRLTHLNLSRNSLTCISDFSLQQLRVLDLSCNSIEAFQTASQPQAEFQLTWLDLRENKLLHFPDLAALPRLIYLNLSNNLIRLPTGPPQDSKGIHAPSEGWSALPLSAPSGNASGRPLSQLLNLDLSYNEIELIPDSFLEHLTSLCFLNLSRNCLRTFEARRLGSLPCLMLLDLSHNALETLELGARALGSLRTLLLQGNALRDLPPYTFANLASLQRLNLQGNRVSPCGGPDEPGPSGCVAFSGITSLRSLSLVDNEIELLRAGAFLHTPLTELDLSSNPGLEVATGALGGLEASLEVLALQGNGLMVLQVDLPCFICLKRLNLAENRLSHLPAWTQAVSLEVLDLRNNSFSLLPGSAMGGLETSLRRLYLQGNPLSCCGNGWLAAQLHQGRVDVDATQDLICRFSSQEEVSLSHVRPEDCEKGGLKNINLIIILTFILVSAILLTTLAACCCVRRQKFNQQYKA
human GARP-TGF-β1 LAP (membrane-bound GARP with TGF-β1 LAP, on 300.19 cells) (human), sequence (chain, as listed by the source limits assumed, chain 2 of 2): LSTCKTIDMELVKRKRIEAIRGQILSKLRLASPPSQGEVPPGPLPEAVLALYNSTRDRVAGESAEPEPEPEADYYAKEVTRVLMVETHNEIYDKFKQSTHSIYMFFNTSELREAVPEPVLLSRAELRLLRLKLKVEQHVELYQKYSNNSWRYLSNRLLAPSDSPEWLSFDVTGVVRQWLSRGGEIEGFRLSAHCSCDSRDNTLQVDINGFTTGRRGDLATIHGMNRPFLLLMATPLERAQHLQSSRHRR
Assay [4] concerns the target human GARP-proTGF-β1 (membrane-bound GARP with proTGF-β1, on transfected cells) (human) (UniProt Q14392). The assay is described as above.
For assay [5] the target is unchanged. As to the kind of experiment: cell-based or functional assay.
The target in assay [6] is human LTBP1 plus proTGF-β1, expressed by transiently transfected SW480 or HEK293 cells (human) (UniProt Q14766). As to the kind of experiment: cell-based or functional assay.
human LTBP1 plus proTGF-β1, expressed by transiently transfected SW480 or HEK293 cells (human), sequence (Q14766 347-1721 limits assumed, chain 1 of 2): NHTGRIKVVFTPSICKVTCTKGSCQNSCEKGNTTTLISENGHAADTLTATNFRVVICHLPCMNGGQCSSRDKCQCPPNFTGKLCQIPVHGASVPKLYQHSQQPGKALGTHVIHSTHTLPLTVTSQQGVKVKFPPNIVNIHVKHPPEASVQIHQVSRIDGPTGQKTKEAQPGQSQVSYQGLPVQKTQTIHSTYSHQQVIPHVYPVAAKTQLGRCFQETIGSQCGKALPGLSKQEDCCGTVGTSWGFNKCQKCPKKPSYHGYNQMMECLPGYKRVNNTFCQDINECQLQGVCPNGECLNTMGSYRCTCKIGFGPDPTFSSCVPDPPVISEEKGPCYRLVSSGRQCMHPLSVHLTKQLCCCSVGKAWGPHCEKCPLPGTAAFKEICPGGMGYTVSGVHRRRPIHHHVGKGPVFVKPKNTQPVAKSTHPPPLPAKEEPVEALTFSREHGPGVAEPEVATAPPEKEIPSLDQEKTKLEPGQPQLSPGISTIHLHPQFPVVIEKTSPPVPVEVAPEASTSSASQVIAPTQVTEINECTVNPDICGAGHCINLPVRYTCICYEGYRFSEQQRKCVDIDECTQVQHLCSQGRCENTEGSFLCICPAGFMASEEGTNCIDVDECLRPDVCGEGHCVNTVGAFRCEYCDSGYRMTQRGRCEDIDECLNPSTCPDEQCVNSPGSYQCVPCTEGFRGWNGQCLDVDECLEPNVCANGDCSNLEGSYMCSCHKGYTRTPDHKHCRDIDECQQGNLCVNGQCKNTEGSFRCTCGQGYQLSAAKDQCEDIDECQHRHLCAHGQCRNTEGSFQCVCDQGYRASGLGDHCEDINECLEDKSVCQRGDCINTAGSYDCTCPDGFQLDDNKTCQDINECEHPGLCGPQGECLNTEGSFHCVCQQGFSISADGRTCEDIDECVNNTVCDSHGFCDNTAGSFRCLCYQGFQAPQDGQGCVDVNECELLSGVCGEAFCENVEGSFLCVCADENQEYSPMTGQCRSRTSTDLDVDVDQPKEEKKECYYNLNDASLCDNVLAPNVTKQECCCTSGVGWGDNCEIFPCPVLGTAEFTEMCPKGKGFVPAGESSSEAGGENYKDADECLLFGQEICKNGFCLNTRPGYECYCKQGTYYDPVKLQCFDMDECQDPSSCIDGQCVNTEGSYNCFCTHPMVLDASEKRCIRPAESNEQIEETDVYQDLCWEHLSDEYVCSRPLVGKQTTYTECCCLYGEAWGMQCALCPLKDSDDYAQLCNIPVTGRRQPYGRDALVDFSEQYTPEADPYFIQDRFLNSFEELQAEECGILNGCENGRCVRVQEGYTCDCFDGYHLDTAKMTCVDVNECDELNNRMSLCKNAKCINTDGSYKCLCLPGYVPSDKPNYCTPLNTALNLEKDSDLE
human LTBP1 plus proTGF-β1, expressed by transiently transfected SW480 or HEK293 cells (human), sequence (chain, as listed by the source limits assumed, chain 2 of 2): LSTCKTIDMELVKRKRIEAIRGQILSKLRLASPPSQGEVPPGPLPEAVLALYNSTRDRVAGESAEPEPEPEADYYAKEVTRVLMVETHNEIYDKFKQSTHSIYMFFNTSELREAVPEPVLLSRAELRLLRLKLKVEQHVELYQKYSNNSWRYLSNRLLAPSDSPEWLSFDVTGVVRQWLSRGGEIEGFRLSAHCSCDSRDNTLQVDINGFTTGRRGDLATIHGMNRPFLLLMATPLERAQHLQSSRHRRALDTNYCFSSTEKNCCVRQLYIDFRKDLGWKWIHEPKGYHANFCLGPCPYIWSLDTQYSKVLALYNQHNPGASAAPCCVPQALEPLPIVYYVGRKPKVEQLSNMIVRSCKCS
Assay [7] concerns the target biotinylated His-tagged TGF-β1 LAP C4S (Homo sapiens (Human)) (UniProt P01137). As to the kind of experiment: ELISA, neutravidin plate with biotinylated His-tagged TGF-β1 LAP C4S; antibody dilution 1:10,000; fluorescent secondary detection.
In assay [8] the target is proTGF-β1 complexed with sGARP (Homo sapiens (Human)) (UniProt Q14392). Put plainly: ELISA with increasing concentrations of MAB246.
proTGF-β1 complexed with sGARP (Homo sapiens (Human)), sequence (Q14392 18-627 limits assumed, chain 1 of 2): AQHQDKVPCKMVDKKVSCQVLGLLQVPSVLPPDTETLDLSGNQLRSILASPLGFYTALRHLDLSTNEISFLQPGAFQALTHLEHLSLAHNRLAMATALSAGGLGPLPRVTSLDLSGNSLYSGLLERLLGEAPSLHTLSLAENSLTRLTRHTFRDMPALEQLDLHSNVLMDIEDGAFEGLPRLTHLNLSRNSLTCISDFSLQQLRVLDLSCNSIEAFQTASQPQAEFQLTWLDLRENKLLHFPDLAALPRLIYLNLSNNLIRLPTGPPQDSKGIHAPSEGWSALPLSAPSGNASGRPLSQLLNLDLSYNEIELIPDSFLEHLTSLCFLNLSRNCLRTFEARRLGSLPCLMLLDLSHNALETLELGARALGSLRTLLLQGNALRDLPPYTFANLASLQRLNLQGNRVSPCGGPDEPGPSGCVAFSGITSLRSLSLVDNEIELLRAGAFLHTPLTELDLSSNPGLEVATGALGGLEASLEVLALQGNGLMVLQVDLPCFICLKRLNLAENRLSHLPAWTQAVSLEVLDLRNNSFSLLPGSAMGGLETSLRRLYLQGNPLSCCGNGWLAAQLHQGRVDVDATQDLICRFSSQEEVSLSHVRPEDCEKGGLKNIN
For assay [9], the target named is LTBP1-proTGFβ1 (protein complex of the ELISA of Example 35) (UniProt Q14766). As to the kind of experiment: ELISA with increasing concentrations of MAB246.
LTBP1-proTGFβ1 (protein complex of the ELISA of Example 35), sequence (Q14766 347-1721 limits assumed, chain 1 of 2): as the sequence (Q14766 347-1721 limits assumed, chain 1 of 2) above
Assay [10] concerns the target TGF-β1 LAP complexed with sGARP (Homo sapiens (Human)) (UniProt Q14392). As to the kind of experiment: ELISA with increasing concentrations of MAB246.

biotinylated His-tagged TGF-β1 LAP C4S (Homo sapiens (Human)), sequence (P01137 other isoform, or with tags, fused parts or gaps limits assumed): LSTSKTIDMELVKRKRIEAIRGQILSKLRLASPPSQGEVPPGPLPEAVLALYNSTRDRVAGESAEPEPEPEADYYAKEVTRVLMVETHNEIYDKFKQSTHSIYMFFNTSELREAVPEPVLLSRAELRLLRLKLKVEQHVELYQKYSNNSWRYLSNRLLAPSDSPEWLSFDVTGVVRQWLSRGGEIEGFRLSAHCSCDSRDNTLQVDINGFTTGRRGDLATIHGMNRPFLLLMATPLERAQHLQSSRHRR
human GARP-proTGF-β1 (membrane-bound GARP with proTGF-β1, on transfected cells) (human), sequence (Q14392 20-662 limits assumed, chain 1 of 2): as the sequence (Q14392 20-662 limits assumed, chain 1 of 2) above
TGF-β1 LAP complexed with sGARP (Homo sapiens (Human)), sequence (Q14392 18-627 limits assumed, chain 1 of 2): as the sequence (Q14392 18-627 limits assumed, chain 1 of 2) above
TGF-β1 LAP complexed with sGARP (Homo sapiens (Human)), sequence (chain, as listed by the source limits assumed, chain 2 of 2): as the sequence (P01137 other isoform, or with tags, fused parts or gaps limits assumed) above, with S4C counted along it

In general, Kd refers to the equilibrium constant for the complex coming apart. The pKd is −log10 of the Kd, conventionally taken in molar units. A high value points to a low Kd. “MAB246 (R&D Systems, Minneapolis, Minn.), mouse IgG1 anti-TGF-β1 LAP antibody, clone 27235”: the values for the RFU in assay [1], in [2] and in [7] were 26800 RFU, 24900 RFU and 18800 RFU, respectively. For the same substance, the Kd in assay [3] came to 0.08 µg/mL; in assay [4], 35.1 µg/mL. The same substance registered a reporter activity (TMLC luciferase, RLU), 20 or 50 µg/ml MAB246 in assay [5] of less than 2 fold. Moreover, the RLUs (TMLC luciferase), with αvβ6-expressing cells and 20 or 50 µg/ml MAB246 in assay [6] stood at 3.5 fold. Besides, the reporter activity (TMLC luciferase, RLU), 20 µg/ml MAB246 in assay [6] stood at 2 fold. Also, the reporter activity (TMLC luciferase, RLU), 50 µg/ml MAB246 in assay [6] is greater than 2.5 fold. Moreover, the pKd in [8] is 9.04; in assay [9], 9.62; in assay [10] it was 9.85.

With “MAB2463 (R&D Systems, Minneapolis, Minn.), mouse IgG1 anti-TGF-β1 LAP antibody, clone 27232”, the values for the RFU in assay [1], in assay [2] and in [7] were 57500 RFU, 42100 RFU and 32000 RFU, respectively. In addition, the Kd is 0.11 µg/mL in [3] and 0.19 µg/mL in assay [4].

Turning to “9016.2 (mouse monoclonal anti-TGF-β LAP antibody, Abcam, Cambridge, UK)”, the RFU turned out to be 14600 RFU in assay [1], 4540 RFU in assay [2] and 3310 RFU in assay [7].

Regarding “αvβ6 integrin (on cells, e.g. SW480-β6 cells) (from UniProt P06756 31-1048; P18564 22-788) (receptor)”, in assay [6], the RLUs (TMLC luciferase), no antibody stood at 2.5 fold.
